T1: His-tagged recombinant mouse IL12RB2 protein (mIL12R-B2-His) (mouse, UniProt P97378 24-637, limits assumed)
T1 construct: bought
T1 sequence (looked up): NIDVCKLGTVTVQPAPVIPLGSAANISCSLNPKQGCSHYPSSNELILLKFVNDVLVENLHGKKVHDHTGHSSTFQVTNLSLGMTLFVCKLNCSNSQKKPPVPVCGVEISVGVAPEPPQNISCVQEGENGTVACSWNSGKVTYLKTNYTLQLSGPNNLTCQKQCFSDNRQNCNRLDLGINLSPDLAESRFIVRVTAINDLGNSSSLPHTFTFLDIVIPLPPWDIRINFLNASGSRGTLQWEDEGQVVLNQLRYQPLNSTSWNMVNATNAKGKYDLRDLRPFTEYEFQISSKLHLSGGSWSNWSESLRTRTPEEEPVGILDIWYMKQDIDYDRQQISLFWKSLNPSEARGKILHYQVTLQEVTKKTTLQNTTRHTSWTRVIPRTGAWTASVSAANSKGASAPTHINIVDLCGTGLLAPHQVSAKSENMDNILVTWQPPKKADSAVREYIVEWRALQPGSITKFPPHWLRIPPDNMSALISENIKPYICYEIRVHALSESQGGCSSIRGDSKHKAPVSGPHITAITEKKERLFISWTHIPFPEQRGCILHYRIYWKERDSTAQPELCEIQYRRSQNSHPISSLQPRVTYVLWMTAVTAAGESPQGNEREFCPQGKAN

B1: PDL1-3F2 (antibody, human IgG1, kappa)
heavy: not shown
light: DIVLTQSPDFQSVTPKEKVTITCRASQSISNNLHWYQQKPDESPKLLIKYASQSISGIPSRFSGSGSGTDFTLTINSVEAEDFAMYFCQQSKSWPFTFGQGTRLEIKRTVAAPSVFIFPPSDEQLKSGTASVVCLLNNFYPREAKVQWKVDNALQSGNSQESVTEQDSKDSTYSLSSTLTLSKADYEKHKVYACEVTHQGLSSPVTKSFNRGEC
notes: also called PDL1-3F2-IgG1; PDL1-3F2 IgG1
B2: 3F2-mIL12-3A (antibody, IgG1)
heavy: QVQLQESGPGLVKPSETLSLTCTVSGYSITSGYNWHWIRQFPGNGLEWMGYIHHSSITNYNPSLKSRITISRDTSKNQFSLKLSSVTAADTATYYCAREGYDYDWFAYWGQGTLVTVSSASTKGPSVFPLAPSSKSTSGGTAALGCLVKDYFPEPVTVSWNSGALTSGVHTFPAVLQSSGLYSLSSVVTVPSSSLGTQTYICNVNHKPSNTKVDKKVEPKSCDKTHTCPPCPAPELLGGPSVFLFPPKPKDTLMISRTPEVTCVVVDVSHEDPEVKFNWYVDGVEVHNAKTKPREEQYNSTYRVVSVLTVLHQDWLNGKEYKCKVSNKALPAPIEKTISKAKGQPREPQVYTLPPSRDEGGGGSGGGGSVIPVSGPARCLSQSRNLLKTTDDMVKTAREKLKHYSCTAEDIDHEDITRDQTSTLKTCLPLELHKNESCLATRETSSTTRGSCLPPQKTSLMMTLCLGSIYEDLKMYQTEFQAINAALQNHNHQQIILDKGMLVAIDELMQSLNHNGETLRQKPPVGEADPYRVKMKLCILLHAFSTRVVTINRVMGYLSSAGGGGSGGGGSVSLTCLVKGFYPSDIAVEWESNGQPENNYKTTPPVLDSDGSFFLYSKLTVDKSRWQQGNVFSCSVMHEALHNHYTQKSLSLSPGK
light: B1 light
chain: MWELEKDVYVVEVDWTPDAPGETVNLTCDTPEEDDITWTSDQRHGVIGSGKTLTITVKEFLDAGQYTCHKGGETLSHSHLLLHKKENGIWSTEILKNFKNKTFLKCEAPNYSGRFTCSWLVQRNMDLKFNIKSSSSSPDSRAVTCGMASLSAEKVTLDQRDYEKYSVSCQEDVTCPTAEETLPIELALEARQQNKYENYSTSFFIRDIIKPDPPKNLQMKPLKNSQVEVSWEYPDSWSTPHSYFSLKFFVRIQRKKEKMKETEEGCNQKGAFLVEKTSTEVQCKGGNVCVQAQDRYYNSSCSKWACVPCRVRS
notes: IgG1; IL12b co-expressed; also called 3F2-mIL12-3A-IgG1
B3: 3F2-mIL12-3A-mIFNa4 (antibody, IgG1)
heavy: QVQLQESGPGLVKPSETLSLTCTVSGYSITSGYNWHWIRQFPGNGLEWMGYIHHSSITNYNPSLKSRITISRDTSKNQFSLKLSSVTAADTATYYCAREGYDYDWFAYWGQGTLVTVSSASTKGPSVFPLAPSSKSTSGGTAALGCLVKDYFPEPVTVSWNSGALTSGVHTFPAVLQSSGLYSLSSVVTVPSSSLGTQTYICNVNHKPSNTKVDKKVEPKSCDKTHTCPPCPAPELLGGPSVFLFPPKPKDTLMISRTPEVTCVVVDVSHEDPEVKFNWYVDGVEVHNAKTKPREEQYNSTYRVVSVLTVLHQDWLNGKEYKCKVSNKALPAPIEKTISKAKGQPREPQVYTLPPSRDEGGGGSGGGGSVIPVSGPARCLSQSRNLLKTTDDMVKTAREKLKHYSCTAEDIDHEDITRDQTSTLKTCLPLELHKNESCLATRETSSTTRGSCLPPQKTSLMMTLCLGSIYEDLKMYQTEFQAINAALQNHNHQQIILDKGMLVAIDELMQSLNHNGETLRQKPPVGEADPYRVKMKLCILLHAFSTRVVTINRVMGYLSSAGGGGSGGGGSVSLTCLVKGFYPSDIAVEWESNGQPENNYKTTPPVLDSDGSFFLYSKLTVDKSRWQQGNVFSCSVMHEALHNHYTQKSLSLSPGKGGGGSGGGGSGGGGSGGGGSCDLPHTYNLGNKRALTVLEEMRRLPPLSCLKDRKDFGFPLEKVDNQQIQKAQAILVLRDLTQQILNLFTSKDLSATWNATLLDSFCNDLHQQLNDLKACVMQEPPLTQEDSLLAVRTYFHRITVYLRKKKHSLCAWEVIRAEVWRALSSSTNLLARLSEEKE
light: B1 light
chain: B2 chain
notes: IgG1; 3F2-mIL12-3A with mIFNa4 linked to each heavy chain C-terminus
B4: 3F2-hIL7-3A-mIFNa4 (antibody, IgG1)
heavy: QVQLQESGPGLVKPSETLSLTCTVSGYSITSGYNWHWIRQFPGNGLEWMGYIHHSSITNYNPSLKSRITISRDTSKNQFSLKLSSVTAADTATYYCAREGYDYDWFAYWGQGTLVTVSSASTKGPSVFPLAPSSKSTSGGTAALGCLVKDYFPEPVTVSWNSGALTSGVHTFPAVLQSSGLYSLSSVVTVPSSSLGTQTYICNVNHKPSNTKVDKKVEPKSCDKTHTCPPCPAPELLGGPSVFLFPPKPKDTLMISRTPEVTCVVVDVSHEDPEVKFNWYVDGVEVHNAKTKPREEQYNSTYRVVSVLTVLHQDWLNGKEYKCKVSNKALPAPIEKTISKAKGQPREPQVYTLPPSRDEGGGGSGGGGSDCDIEGKDGKQYESVLMVSIDQLLDSMKEIGSNCLNNEFNFFKRHICDANKEGMFLFRAARKLRQFLKMNSTGDFDLHLLKVSEGTTILLNCTGQVKGRKPAALGEAQPTKSLEENKSLKEQKKLNDLCFLKRLLQEIKTCWNKILMGTKEHGGGGSGGGGSVSLTCLVKGFYPSDIAVEWESNGQPENNYKTTPPVLDSDGSFFLYSKLTVDKSRWQQGNVFSCSVMHEALHNHYTQKSLSLSPGKGGGGSGGGGSGGGGSGGGGSCDLPHTYNLGNKRALTVLEEMRRLPPLSCLKDRKDFGFPLEKVDNQQIQKAQAILVLRDLTQQILNLFTSKDLSATWNATLLDSFCNDLHQQLNDLKACVMQEPPLTQEDSLLAVRTYFHRITVYLRKKKHSLCAWEVIRAEVWRALSSSTNLLARLSEEKE
light: B1 light
notes: IgG1
B5: 3F2-hIL21-3A (antibody, IgG1)
heavy: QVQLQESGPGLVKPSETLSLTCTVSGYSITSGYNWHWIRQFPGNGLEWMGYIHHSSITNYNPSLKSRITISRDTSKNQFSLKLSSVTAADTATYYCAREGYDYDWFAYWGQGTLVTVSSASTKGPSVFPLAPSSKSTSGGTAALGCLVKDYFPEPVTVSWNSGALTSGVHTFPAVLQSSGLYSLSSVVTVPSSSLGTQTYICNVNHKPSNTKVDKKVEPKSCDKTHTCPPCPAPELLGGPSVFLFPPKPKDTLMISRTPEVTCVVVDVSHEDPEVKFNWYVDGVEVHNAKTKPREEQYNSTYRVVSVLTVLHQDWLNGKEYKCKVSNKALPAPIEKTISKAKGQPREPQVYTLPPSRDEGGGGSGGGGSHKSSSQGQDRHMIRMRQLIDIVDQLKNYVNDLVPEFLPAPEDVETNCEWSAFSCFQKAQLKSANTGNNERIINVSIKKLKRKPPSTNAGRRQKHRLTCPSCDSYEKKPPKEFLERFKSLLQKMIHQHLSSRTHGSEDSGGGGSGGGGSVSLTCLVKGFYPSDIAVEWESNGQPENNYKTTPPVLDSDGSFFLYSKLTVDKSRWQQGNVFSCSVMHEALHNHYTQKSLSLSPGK
light: B1 light
notes: IgG1
B6: 3F2-hIL21-3A-mIFNa4 (antibody, IgG1)
heavy: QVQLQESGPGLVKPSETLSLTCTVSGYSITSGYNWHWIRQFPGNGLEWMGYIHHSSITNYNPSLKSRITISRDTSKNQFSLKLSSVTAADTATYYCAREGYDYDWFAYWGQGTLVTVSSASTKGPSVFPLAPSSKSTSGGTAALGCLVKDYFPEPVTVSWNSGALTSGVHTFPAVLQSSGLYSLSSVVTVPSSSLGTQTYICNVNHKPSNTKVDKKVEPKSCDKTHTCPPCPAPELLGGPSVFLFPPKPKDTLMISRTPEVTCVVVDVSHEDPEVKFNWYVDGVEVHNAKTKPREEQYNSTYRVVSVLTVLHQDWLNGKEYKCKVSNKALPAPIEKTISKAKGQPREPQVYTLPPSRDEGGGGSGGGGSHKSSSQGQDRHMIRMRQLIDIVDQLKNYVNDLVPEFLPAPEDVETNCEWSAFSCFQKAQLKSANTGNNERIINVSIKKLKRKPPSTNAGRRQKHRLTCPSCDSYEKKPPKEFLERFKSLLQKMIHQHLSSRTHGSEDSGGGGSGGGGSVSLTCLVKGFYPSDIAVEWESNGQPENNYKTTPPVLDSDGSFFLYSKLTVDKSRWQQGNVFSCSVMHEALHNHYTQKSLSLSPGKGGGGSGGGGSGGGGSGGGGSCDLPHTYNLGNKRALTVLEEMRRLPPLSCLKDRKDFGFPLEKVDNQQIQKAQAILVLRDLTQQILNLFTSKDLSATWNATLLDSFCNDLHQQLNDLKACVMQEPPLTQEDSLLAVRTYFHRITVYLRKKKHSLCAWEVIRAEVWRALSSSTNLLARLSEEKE
light: B1 light
notes: IgG1
B7: M7824 (antibody, human IgG1, lambda)
heavy: not shown
light: QSALTQPASVSGSPGQSITISCTGTSSDVGGYNYVSWYQQHPGKAPKLMIYDVSNRPSGVSNRFSGSKSGNTASLTISGLQAEDEADYYCSSYTSSSTRVFGTGTKVTVLGQPKANPTVTLFPPSSEELQANKATLVCLISDFYPGAVTVAWKADGSPVKAGVETTKPSKQSNNKYAASSYLSLTPEQWKSHRSYSCQVTHEGSTVEKTVAPTECS
notes: Extracellular domain of TGFbR2 linked at the C terminal of the Fc of the anti-PDL1 antibody; also called bifunctional anti-PD-L1/TGFβ Trap fusion protein

Tests used:
[1] = molecular target: T2, 6×Histidine-tagged human PD-L1 protein (hPDL1-His) (human, UniProt Q9NZQ7 19-238); assay: SPR Biacore T200; binder captured on protein A chip, target as analyte
T2 construct: also called hPL1-His; His-tagged human PD-L1
T2 sequence (Q9NZQ7 19-238 limits assumed): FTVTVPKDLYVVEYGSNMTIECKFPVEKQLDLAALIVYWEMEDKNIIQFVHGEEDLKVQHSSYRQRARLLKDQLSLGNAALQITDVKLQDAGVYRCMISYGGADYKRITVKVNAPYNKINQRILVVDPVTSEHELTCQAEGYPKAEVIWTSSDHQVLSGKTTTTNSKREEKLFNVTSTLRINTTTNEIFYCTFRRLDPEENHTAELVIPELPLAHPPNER

[2] = molecular target: T2, 6×Histidine-tagged human PD-L1 protein …; assay: as above; remark: listed apart in the source
[3] = molecular target: T2, 6×Histidine-tagged human PD-L1 protein …; assay: SPR Biacore T200; binder captured on protein A chip, hPL1-His 1.5625-200 nM as analyte
Protocol: Dissociation was monitored for 400 seconds. The chip was regenerated after the last injection of each titration with Glycine (pH 2.0, 30 μL/min for 12 seconds). As a person of ordinary skill in the art would understand, the same method with appropriate adjustments for parameters (e.g., fusion protein concentration) was performed for each tested fusion protein.
Kinetic association rates (kon) and dissociation rates (koff) were obtained simultaneously by fitting the data globally to a 1:1 Langmuir binding model (Karlsson, R. Roos, H. Fagerstam, L. Petersson, B., 1994. Methods Enzymology 6. 99-110) using Biacore™ T200 Evaluation Software 3.0. Affinities were calculated from the quotient of the kinetic rate constants (KD=koff/kon). […] Non-specific effects were not observed.

[4] = molecular target: T1, His-tagged recombinant mouse IL12RB2 …; assay: SPR Biacore T200; binder captured on protein A chip, target as analyte
TGFb1 = molecular target: T3, TGFb1 (Homo sapiens (Human), UniProt P01137 279-390, Active TGF-beta-1 is a disulfide-linked homodimer of this chain; one copy is given.); assay: SPR; binder as capture solution, TGFb1 as analyte
T3 construct: also called TGFb1 protein
T3 sequence (P01137 279-390 limits assumed): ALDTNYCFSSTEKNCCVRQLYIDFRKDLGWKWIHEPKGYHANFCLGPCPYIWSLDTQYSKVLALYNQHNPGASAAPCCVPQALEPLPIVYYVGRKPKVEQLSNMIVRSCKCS

Row | Binder | Kd [2] | koff [2] | kon [2] | Kd [3] | koff [3] | kon [3] | other results
1 | B1 | 0.372 nM | 0.000652 s⁻¹ | 1.75e+06 M⁻¹ s⁻¹ | 0.559 nM | 0.0013 s⁻¹ | 2.32e+06 M⁻¹ s⁻¹ | Kd [1]: 0.372 nM; koff [1]: 0.000652 s⁻¹; kon [1]: 1.75e+06 M⁻¹ s⁻¹
2 | B2 |  |  |  | 0.382 nM | 0.000952 s⁻¹ | 2.49e+06 M⁻¹ s⁻¹ | Kd [4]: 58.5 nM; koff [4]: 0.00335 s⁻¹; kon [4]: 57300 M⁻¹ s⁻¹
3 | B3 |  |  |  | 0.396 nM | 0.000922 s⁻¹ | 2.33e+06 M⁻¹ s⁻¹ | Kd [4]: 56.5 nM; koff [4]: 0.00299 s⁻¹; kon [4]: 52900 M⁻¹ s⁻¹
4 | B4 |  |  |  |  |  |  | Kd [1]: 0.685 nM; koff [1]: 0.000803 s⁻¹; kon [1]: 1.17e+06 M⁻¹ s⁻¹
5 | B5 | 0.515 nM | 0.000613 s⁻¹ | 1.19e+06 M⁻¹ s⁻¹ |  |  |  | 
6 | B6 | 0.613 nM | 0.00072 s⁻¹ | 1.17e+06 M⁻¹ s⁻¹ |  |  |  | 
7 | B7 |  |  |  |  |  |  | Kd (TGFb1): 83 nM; koff (TGFb1): 0.00852 s⁻¹; kon (TGFb1): 103000 M⁻¹ s⁻¹

Reference: US20240360201A1 (BIOCYTOGEN PHARMACEUTICALS BEIJING, published 2024)
